Experimental data taken from article doi:10.1101/2020.10.05.326918 (bioRxiv, 2020).

Columns and labels:
Test in all cases: cryo-EM structure
[1] = target: T1, MED24 (Mus musculus (endogenous in CH12 cells), UniProt Q99K74 1-987)
T1 sequence (looked up): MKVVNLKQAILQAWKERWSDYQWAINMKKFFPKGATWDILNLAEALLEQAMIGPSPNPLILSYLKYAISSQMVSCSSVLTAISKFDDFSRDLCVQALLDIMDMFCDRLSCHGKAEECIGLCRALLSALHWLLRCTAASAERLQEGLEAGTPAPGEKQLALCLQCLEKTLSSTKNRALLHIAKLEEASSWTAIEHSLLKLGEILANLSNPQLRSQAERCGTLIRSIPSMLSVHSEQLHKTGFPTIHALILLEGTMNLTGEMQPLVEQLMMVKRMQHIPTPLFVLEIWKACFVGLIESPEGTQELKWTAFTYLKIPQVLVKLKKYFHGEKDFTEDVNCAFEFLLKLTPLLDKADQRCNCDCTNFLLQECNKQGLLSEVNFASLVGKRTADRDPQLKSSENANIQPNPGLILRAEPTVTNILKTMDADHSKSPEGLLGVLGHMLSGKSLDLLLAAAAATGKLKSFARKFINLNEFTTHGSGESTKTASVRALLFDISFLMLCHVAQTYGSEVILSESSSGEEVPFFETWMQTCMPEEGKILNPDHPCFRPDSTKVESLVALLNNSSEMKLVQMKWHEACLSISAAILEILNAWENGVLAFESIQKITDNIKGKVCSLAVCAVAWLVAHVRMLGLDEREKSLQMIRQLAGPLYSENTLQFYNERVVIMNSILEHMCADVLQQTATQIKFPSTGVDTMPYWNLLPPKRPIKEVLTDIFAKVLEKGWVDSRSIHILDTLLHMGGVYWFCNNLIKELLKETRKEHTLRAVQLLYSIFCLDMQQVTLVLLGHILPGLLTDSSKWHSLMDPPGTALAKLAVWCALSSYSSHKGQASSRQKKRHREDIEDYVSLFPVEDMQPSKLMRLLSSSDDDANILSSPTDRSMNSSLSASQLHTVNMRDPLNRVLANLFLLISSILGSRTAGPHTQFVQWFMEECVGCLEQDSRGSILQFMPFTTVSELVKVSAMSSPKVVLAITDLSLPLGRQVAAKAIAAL

[2] = target: T2, MED16 (Mus musculus (endogenous in CH12 cells), UniProt Q6PGF3 1-828)
T2 sequence (looked up): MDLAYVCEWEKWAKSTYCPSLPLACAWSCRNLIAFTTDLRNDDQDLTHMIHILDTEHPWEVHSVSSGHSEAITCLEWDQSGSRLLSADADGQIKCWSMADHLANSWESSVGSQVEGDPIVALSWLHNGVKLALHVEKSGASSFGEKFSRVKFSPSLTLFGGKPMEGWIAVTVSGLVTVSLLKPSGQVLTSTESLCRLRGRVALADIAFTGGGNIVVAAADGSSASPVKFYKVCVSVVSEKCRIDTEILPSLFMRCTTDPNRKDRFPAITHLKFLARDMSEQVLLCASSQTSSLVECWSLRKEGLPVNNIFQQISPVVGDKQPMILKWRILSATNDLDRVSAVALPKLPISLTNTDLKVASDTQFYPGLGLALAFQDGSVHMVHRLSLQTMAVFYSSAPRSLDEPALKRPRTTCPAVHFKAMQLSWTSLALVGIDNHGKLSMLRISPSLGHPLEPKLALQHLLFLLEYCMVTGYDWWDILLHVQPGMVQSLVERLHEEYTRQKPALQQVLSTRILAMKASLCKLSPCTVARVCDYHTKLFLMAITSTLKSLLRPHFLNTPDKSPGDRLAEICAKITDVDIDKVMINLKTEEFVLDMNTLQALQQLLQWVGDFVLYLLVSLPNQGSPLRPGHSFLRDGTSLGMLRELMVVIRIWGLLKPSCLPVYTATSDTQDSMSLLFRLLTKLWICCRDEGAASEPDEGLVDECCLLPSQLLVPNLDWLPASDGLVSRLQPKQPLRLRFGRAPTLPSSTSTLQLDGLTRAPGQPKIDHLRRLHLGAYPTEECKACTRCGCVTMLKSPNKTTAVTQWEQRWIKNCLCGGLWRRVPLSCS

[3] = target: T3, MED23 (Mus musculus (endogenous in CH12 cells), UniProt Q80YQ2 1-1367)
T3 sequence (looked up): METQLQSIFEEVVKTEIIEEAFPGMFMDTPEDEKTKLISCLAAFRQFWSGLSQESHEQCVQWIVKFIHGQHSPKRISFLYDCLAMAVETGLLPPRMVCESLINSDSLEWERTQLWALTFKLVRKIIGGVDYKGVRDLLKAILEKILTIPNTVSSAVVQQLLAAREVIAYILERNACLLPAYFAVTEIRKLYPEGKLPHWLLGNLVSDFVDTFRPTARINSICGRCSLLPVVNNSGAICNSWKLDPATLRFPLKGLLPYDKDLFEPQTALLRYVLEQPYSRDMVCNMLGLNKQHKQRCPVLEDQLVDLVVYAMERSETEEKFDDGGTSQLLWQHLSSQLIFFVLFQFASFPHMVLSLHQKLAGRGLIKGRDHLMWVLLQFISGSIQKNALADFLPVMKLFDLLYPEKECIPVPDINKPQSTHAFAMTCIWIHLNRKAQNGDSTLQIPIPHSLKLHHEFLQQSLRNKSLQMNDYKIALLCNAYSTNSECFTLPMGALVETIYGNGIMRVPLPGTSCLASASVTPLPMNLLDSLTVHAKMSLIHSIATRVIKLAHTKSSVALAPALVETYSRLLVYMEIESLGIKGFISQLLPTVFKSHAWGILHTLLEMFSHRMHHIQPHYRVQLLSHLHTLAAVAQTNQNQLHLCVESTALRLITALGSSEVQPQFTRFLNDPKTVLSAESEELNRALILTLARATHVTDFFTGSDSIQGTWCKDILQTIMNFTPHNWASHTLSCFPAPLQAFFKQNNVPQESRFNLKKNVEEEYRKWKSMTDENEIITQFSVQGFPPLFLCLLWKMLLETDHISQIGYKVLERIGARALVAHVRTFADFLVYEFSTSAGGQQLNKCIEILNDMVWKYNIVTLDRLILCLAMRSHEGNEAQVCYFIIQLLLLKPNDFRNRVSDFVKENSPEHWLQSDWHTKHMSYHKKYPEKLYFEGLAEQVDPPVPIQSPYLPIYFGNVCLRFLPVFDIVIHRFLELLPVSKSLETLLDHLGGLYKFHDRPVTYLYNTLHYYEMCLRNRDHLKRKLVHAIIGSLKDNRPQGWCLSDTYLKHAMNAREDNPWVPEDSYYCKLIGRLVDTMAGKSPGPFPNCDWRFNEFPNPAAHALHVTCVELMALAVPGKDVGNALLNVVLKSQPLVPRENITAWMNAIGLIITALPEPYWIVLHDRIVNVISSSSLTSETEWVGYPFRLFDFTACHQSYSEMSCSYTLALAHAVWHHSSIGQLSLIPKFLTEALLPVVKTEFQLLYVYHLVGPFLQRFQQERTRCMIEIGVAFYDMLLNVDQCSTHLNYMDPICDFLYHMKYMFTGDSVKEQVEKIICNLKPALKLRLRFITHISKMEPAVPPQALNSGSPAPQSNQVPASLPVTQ

[4] = target: MED14 (Mus musculus (endogenous in CH12 cells), UniProt A2ABV5 1-1459)

Measured: binding result

MED14, sequence (A2ABV5 whole entry): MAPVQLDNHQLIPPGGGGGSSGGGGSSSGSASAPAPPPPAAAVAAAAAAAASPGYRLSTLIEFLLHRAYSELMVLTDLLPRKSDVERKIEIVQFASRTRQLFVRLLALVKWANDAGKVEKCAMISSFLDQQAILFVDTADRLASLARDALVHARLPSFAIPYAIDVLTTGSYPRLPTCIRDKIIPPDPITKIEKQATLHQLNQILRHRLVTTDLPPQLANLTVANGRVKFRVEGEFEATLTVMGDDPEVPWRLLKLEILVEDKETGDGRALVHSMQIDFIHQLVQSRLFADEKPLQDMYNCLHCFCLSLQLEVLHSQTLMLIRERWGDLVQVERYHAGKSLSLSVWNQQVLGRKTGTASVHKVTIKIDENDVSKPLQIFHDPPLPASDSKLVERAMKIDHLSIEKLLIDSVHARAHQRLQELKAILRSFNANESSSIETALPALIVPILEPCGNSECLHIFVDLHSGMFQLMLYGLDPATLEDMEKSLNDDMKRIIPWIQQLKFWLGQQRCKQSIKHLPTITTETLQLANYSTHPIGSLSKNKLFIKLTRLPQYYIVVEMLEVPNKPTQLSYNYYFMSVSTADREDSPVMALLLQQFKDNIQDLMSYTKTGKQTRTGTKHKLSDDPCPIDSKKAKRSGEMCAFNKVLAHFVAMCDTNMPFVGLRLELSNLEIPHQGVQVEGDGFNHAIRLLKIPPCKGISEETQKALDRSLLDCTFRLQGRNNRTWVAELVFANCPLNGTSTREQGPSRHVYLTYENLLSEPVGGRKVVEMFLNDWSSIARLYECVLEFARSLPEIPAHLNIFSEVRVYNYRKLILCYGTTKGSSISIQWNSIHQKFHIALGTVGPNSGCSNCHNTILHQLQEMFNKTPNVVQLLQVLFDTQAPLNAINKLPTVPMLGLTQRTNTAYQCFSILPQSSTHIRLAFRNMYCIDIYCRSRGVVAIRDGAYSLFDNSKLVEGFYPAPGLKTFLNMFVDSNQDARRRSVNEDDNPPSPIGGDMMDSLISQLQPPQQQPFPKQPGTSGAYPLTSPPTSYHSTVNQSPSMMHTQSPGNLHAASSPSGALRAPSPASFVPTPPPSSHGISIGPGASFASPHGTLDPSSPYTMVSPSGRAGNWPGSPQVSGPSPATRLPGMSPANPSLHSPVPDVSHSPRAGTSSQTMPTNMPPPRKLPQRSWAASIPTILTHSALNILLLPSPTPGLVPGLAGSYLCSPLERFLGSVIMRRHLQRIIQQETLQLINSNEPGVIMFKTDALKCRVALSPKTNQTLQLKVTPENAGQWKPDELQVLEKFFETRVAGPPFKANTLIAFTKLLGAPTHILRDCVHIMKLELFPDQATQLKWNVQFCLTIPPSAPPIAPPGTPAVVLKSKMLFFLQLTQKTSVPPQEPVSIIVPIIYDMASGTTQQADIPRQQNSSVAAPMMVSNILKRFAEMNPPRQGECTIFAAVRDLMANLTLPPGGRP

B1: MED25 (natural protein, Mus musculus (endogenous in CH12 cells), UniProt Q8VCB2 1-745, looked up)
chain: MVPGSEGPARAGGLVADVVFVIEGTANLGPYFEELRKHYLLPAIEYFNGGPPAETDFGGDYGGTQYSLVVFNTVDCAPESYVQCHAPTSSAYEFVTWLDGIKFMGGGGESCSLIAEGLSTALQLFDDFKKMREQIGQTHRVCLLICNSPPYLLPAVESTTYSGCTTESLVQKIGERGIHFSIVSPRKLPALRLLFEKAAPPALLEPLQQPADVSQDPRHMVLVRGLVLPVGGSSTSGSLQTKQAVPLPPAPASAATLSAAPPQALPPVPPQYQVPGNLSAAQVAAQNAVEAAKSQKAGLGPRFSPINPLQQAAPGVGPPFSQAPAPPLAPVPPGAPKPPPASQPSLVSTVAPGPVLAAPAQPGAPSLAGTVTPGGVNGPSAAQLGGPALGGQQSVSNKLLAWSGVLEWQEKPKPASVDANTKLTRSLPCQVYVNHGENLKTEQWPQKLIMQLIPQQLLTTLGPLFRNSRMVQFHFTNKDLESLKGLYRIMGNGFAGCVHFPHTAPCEVRVLMLLYSSKKKIFMGLIPYDQSGFVNGIRQVITNHKQVQQQKLEQQRGMGAQQAPPVLGPILEEQARPPQNLLQLRAPQPQPQGAVGASAATGQPQPQGATQAPTGAPQGPPGAAPGPPPSGPILRPQNPGANPQLRSLLLNPAPPQTGVPPPQASLHHLQPPGAPTLLPPHQSMGQPQLGPQLLHPPPAQSWPTQLPQRAPLPGQMLLSGGPRGPVPQPGLQPSVMEDDILMDLI
binds: [1] | [2] | [3]

B2: MED15 (natural protein, Mus musculus (endogenous in CH12 cells), UniProt Q924H2 1-789, looked up)
chain: MDVSGQETDWRSAAFRQKLVSQIEDAMRKAGVAHSKSSKDMESHVFLKAKTRDEYLSLVARLIIHFRDIHNKKSQASVSDPMNALQSLTGGPTPGAAGIGMPPRGPGQSLGGMGGLGAMGQPLPLSGQPPPGTSGMAPHGMAVVSTATPQTQLQLQQVALQQQQQQQQQQQFQQQQAALQQQQQQQQQQQQQQQFQAQQNAMQQQFQAVVQQQQLQQQQQQQHLIKLHHQSQQQQIQQQQLQRMAQLQLQQQQQQQQQQALQAQPPMQQPSMQQPQPPPSQALPQQLSQLHHPQHHQPPPQAQQSPIAQNQPPQIPPQSQSQPLVSQAQALPGPMLYAAQQQLKFVRAPMVVQQPQVQPQVQQVQPQVQPQAAVQAAQSAQMVAPGVQMIAEALAQGGMHVRARFPPTSTMSAGPSSSISLGGQPTTQVSQSSLTMLSSPSPGQQVQTPQSMPPPPQPSPQPGSQPNSNVSSGPAPSPSSFLPSPSPQPSQSPVTARTPQNFSVPSPGPLNTPVNPSSVMSPAGSSQAEEQQYLDKLKQLSKYIEPLRRMINKIDKNEDRKKDLSKMKSLLDILTDPSKRCPLKTLQKCEIALEKLKNDMAVPTPPPPPVLPTKQQDLCQPLLDAVLANIRSPVFNHSLYRTFVPAMMAIHGPPIVSPVVCSRKRRFEEDERQSIPNVLQGEVARLDPKFLVNLDPSHCSNNGTVHLICKLDDKDLPSVPPLELSVPADYPAQSPMWIDRQWQYDANPFLQSVHRCMTSRLLQLPDKHSVTALLNTWAQSIHQACLSAA
binds: all assays above
